“Also recorded” adds a separate entry of the source.
T1: α11β1 I Domain (Homo sapiens, UniProt Q9UKX5)
T1 sequence (Q9UKX5 164-345 limits assumed): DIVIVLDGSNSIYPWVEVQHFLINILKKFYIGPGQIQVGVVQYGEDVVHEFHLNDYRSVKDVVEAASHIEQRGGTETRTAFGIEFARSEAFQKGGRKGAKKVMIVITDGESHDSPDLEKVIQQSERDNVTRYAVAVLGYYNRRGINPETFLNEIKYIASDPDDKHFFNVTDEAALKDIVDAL

T2: adhesion of CHO-K1 cells expressing human α11 to rat tail type I collagen (Homo sapiens, UniProt Q9UKX5)
T2 construct: expressed in transfected cells; host or cells: CHO-K1
T2 sequence (Q9UKX5 23-1188): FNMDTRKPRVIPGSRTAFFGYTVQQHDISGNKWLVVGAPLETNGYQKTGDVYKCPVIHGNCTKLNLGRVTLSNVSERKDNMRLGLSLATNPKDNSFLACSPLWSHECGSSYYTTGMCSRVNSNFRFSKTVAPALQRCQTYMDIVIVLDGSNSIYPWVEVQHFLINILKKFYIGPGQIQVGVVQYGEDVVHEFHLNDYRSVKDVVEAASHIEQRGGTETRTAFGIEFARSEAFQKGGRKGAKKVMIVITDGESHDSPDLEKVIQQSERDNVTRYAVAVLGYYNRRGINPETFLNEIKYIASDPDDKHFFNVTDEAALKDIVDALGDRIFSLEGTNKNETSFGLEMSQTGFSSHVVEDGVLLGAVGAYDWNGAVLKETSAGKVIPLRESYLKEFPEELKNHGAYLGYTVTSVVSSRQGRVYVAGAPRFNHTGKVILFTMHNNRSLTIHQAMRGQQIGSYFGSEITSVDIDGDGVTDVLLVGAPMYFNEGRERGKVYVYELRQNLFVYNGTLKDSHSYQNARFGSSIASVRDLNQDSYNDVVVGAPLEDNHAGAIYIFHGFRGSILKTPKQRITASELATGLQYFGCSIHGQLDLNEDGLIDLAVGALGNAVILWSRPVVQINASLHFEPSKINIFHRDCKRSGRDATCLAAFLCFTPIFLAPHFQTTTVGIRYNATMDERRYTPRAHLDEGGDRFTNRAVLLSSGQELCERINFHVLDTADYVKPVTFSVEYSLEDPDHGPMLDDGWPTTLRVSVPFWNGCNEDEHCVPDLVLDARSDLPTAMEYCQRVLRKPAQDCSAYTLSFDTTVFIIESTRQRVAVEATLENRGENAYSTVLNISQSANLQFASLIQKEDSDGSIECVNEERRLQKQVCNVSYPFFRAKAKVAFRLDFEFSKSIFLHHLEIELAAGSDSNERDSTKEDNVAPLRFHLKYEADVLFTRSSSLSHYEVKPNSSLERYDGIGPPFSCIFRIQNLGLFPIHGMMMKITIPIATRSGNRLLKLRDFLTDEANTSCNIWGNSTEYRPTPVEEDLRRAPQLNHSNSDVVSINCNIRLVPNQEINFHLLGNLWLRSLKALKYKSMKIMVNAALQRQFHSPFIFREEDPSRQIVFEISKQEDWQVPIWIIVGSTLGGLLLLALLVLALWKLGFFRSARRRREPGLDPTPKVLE

B1: 79E3E3: rat anti-α11β1 mAb; VH SEQ ID NO: 145, VL SEQ ID NO: 146 (antibody, V domains shown)
VH: MDWLWNLLFLMVVAQSAQAQIQLVQSGPEVKKPGESVKISCKASGYTFTDYAMNWVKQAPGNGLKWMGWINTQTGKPTYADDFKQRFVFSLETSARTTYLQINNLNIEDTATYFCTRLGTGNTKGFAYWGQGTLVTVSS
VL: MESQTHVLISLLLCVSGTCGDILINQSPASLTVSAGERVTMSCKSSQSLLYSENNQDYLAWYQQKPGQFPKLLIYGASNRHTGVPDRFTGSGSGTDFTLTISSVQAEDLADYYCEQTYRYPFTFGSGTKLEIK
B2: 16E10: rabbit anti-α11β1 mAb; heavy chain SEQ ID NO: 161, light chain SEQ ID NO: 162 (antibody)
heavy: METGLRWLLLVAVLKGVQCQSLEESGGDLVKPGASLTLTCRVSGFSFSSSYYMCWVRQAPGKGLEWIACIGTTRGSTYYATWAKGRFTISKISSTTVTLQMTSLTDADTATYFCARDATGYRINTIGLYFNLWGPGTLVTVSSGQPKAPSVFPLAPCCGDTPSSTVTLGCLVKGYLPEPVTVTWNSGTLTNGVRTFPSVRQSSGLYSLSSVVSVTSSSQPVTCNVAHPATNTKVDKTVAPSTCSKPMCPPPELPGGPSVFIFPPKPKDTLMISRTPEVTCVVVDVSQDDPEVQFTWYINNEQVRTARPPLREQQFNSTIRVVSTLPIAHQDWLRGKEFKCKVHNKALPAPIEKTISKARGQPLEPKVYTMGPPREELSSRSVSLTCMINGFYPSDISVEWEKNGKAEDNYKTTPTVLDSDGSYFLYSKLSVPTSEWQRGDVFTCSVMHEALHNHYTQKSISRSPGK
light: MDTRAPTQLLGLLLLWLPGARCAFELTQTPSSVEAAVGGTPTIKCQASQTIYSYLSWYQQKPGQPPKLLIYEASKLASGVPSRFSGSGSGTDYTLTISDLECADAATYYCQSYHGTASTEYNTFGGGTEVVVRGDPVAPTVLIFPPAADQVATGTVTIVCVANKYFPDVTVTWEVDGTTQTTGIENSKTPQNSADCTYNLSSTLTLTSTQYNSHKEYTCKVTQGTTSVVQSFNRGDC
B3: 9-G05: mouse anti-α11β1 mAb; VH SEQ ID NO: 103, VL SEQ ID NO: 104 (antibody, V domains shown)
VH: EVQLQQSGPELVKPGASVKIPCKASGYTFPDYNMDWVKQSHGKSLEWIGYINPDNGGTIYNQKFKGKATLTVDKSSSTAYMELRSLTSEDTAVYYCARLDSSGYGYYAMDYWGQGTSVTVSS
VL: DIVLTQSPASLAVSLGQRATISCRASESVDNYGISFMHWYQQKPGQPPKLLIYRASNLDSEIPARFSGSGSRTDFTLTIDPVETDDVATYYCQQSYKDPRTFGGGTKLEIK

How the values were obtained:
[1] = system: CHO-K1 human α11-mediated rat tail type I collagen gel contraction; assay: Collagen gel contraction assay; type: cell-based; conditions: compared to untreated condition
Procedure: 24-well plates were blocked with 2% BSA in PBS overnight at 37° C. The following day, the plates were washed 3 times with PBS before being used in the assay. Human CHO cell lines expressing α11 were harvested and resuspended at 1.25×10^6 in ExpiCHO Expression Medium (Gibco™ Cat #A2910002). The collagen gel solution was prepared by diluting 3 mg/mL stock collagen type I (Gibco™ Collagen I Rat Protein, Tail Cat #A1048301) to 1 mg/mL in the media containing the CHO cells. Sodium hydroxide was added to the solution to neutralize the pH and 400 μL of the collagen solution was added to each well of the 24-well plates. For the wells where the antibodies were included in the collagen gel solution, CHO cells were prepared at 2.5×10^6 and the antibodies were prepared at 2× final concentration in ExpiCHO media. The cells and antibodies were then combined 1:1 before the addition of the stock collagen type 1. The gels were allowed to polymerize for 60 minutes at 37° C. Antibodies were added to the ExpiCHO media, which was then layered on top of the polymerized gel (400 μL/well). The gels were incubated for 6 days at 37° C. before gel contraction was quantified. Images of each well were analyzed using Image J and gel contraction was determined as a percentage of the initial gel area.
Selected exemplary antibodies were tested for the ability to inhibit cell-mediated 3D gel contraction because this ability is directly linked to the functionality of the exemplary antibodies.

[2] = system: A549 cell xenografts; assay: Tumor xenograft model; type: in vivo, C.B-17 SCID mice; conditions: A549 xenograft, SCID mice
Procedure: Fifty-six female C.B-17 SCID mice were inoculated with A549 cells (5×10^6 cells/mouse) subcutaneously in the flank. Once tumor volume reached ˜100 mm^3, animals were randomized amongst 7 groups of 8 mice each. Mice were then treated intraperitonealy every 3 days for a total of 7 doses with isotype controls or novel mAbs 79E3E3, 16E10 and 9G04 (2 and 20 mg/kg) or with docetaxel at 10 mg/kg every 4 days for a total of 6 doses. Tumor volumes and body weights were recorded twice a week with a gap of 2-3 days in between two measurements until any of the following conditions defined were observed: loss of 20% or more body weight; tumors that inhibit normal physiological function such as eating, drinking, and mobility; ulcerated tumors; tumor size greater than 2000 mm^3 and clinical observations of prostration, paralysis, seizures and hemorrhages.
In this example, studies were performed to determine if inhibition of α11β1 function with mAb results in xenograft growth inhibition. As shown in FIG. 16 and Table 4, blocking α11β1 on mouse CAFs impeded xenograft growth in SCID mice.

[3] = molecular target: T1, α11β1 I Domain; assay: SPR binding to α11β1 I Domain; conditions: in words
Procedure: (§1) The affinity of antibodies for human α11β1 was measured by surface plasmon resonance assay (SPR). Affinity was measured at pH 7.6 and 25° C. with a Biacore T200 instrument. Anti-HIS antibody was immobilized on the SPR sensor surface using EDC/NHS covalent attachment. HIS-tagged human α11β1 was captured on the sensor surface and a single-cycle kinetics assay was used. Increasing concentrations of test antibody were injected in series over the sensor-bound α11β1. Dissociation was monitored for 1000 seconds. A sensor surface with only anti-HIS antibody and a series of blank injections were used to double-reference subtract the data. A 1:1 Langmuir model was fit to the data to estimate the kinetic association and dissociation constants. The affinity (equilibrium dissociation constant) of the interaction was calculated by dividing the kinetic dissociation constant by the kinetic association constant. Between injection cycles α11β1 and bound antibody were removed with an injection of 10 mM glycine at pH 1.5.
(§2) The binding affinity of antibodies for the α11β1 Headpiece and α11β1 I Domain as measured by SPR is shown in FIG. 10A and FIG. 10B, respectively.

[4] = molecular target: T1, α11β1 I Domain; assay: ELISA binding to in-house generated α11β1 I domain; design: An in-house generated I domain of α11β1 was used; made in house; conditions: in words
Procedure: 0.25 μg/mL of target antigen (recombinant human or mouse α11β1) was plated in a 96-well plate over night at 4° C. Plates were washed (PBS with 0.1% Tween-20), blocked (PBS with 2% BSA and 0.05% Tween-20) for 1 hour at room temperature and incubated with a range of antibody concentrations for 1 hour at room temperature. Subsequently, plates were washed and incubated with biotinylated anti-rabbit/mouse/human IgG in a 1:1000 dilution buffer and incubated for 1 hour at room temperature. After washing the plates, Streptavidin HRP was added at 1:200 in dilution buffer and incubated for 1 hour at room temperature. Ultra TMB ELISA substrate solution was added and the plates incubated for 5 minutes on a plate shaker. The reaction was stopped by adding stop solution to each well and plates were read at 450 nm.
Data was also collected to determine whether antibodies of interest bind to the I domain of α11β1. An in-house generated I domain of α11β1 was used. […] Mouse antibodies 10-F23, 10-L15, 7-O8, 6-A12, 9-G05 and 9-E16 and rabbit antibodies 7-H12 and 2-D3 were also tested for binding against the in-house generated α11β1 I domain. FIGS. 3A and 3B show graphs illustrating binding data from exemplary mAbs.

[5] = system: α11β1 Headpiece; assay: SPR binding to α11β1 Headpiece; design: species or system human; conditions: in words
Procedure: as §1, §2

[6] = molecular target: T2, adhesion of CHO-K1 cells expressing human α11 to rat tail type I collagen; assay: Cell adhesion inhibition (CHO-K1 hu α11 cells to type I collagen, xCelligence); type: cell-based; conditions: in words
Procedure: 0.6×10^6 cells/mL were incubated with each antibody at a range of concentrations for 20 minutes at 37° C. E-Plate VIEW 96 PET plate coated with 100 ng/ml type I collagen or PBS overnight at room temperature was blocked in 3% BSA for 1 house at room temperature. After washing the plate with PBS, cell and antibody mixture was added to the wells and the plate was places into an xCelligence machine. Cell adhesion was recorded over 6 hours. The time point of maximum cell adhesion was used for comparison relative to control.
A CHO-K1 hu α11 cell line was used to assess the ability of mAbs to block α11β1-mediated binding to type I collagen. […] In the “Untreated” condition, cells were plated on type I collagen but no antibody was added and in the “Uncoated” condition, cells were seeded onto BSA-coated wells containing no type I collagen. Statistics were performed using one-way ANOVA followed by Dunnett's multiple comparisons test. […] Therefore, it is possible that these mAbs bind on an α11β1 domain that keeps the integrin in a low or intermediate affinity state. […] Nine human mAbs were also tested for their ability to inhibit the binding of human CHO-α11 cells to type I collagen.

Row | Molecule | Inhibition of CHO-hu α11-mediated collagen gel contraction [1] | Tumor growth inhibition compared to isotype control [2] | Binding to α11β1 I domain (SPR) [3] | Binding to the I domain of α11β1 [4] | Binding to α11β1 headpiece domain (SPR) [5] | Inhibition of cell adhesion to type I collagen [6]
1 | B1 | inhibited | significantly inhibited tumor growth | do bind | high and I-domain binder |  | 
2 | B2 | inhibited | no significant inhibition of tumor growth | do not bind |  | do not bind | 
3 | B3 | inhibited |  | do bind | I-domain binders; also recorded: bound the I domain |  | decrease cell adhesion to collagen
